In assay [1] the target is T1, mouse P2X7 (mouse, UniProt Q9Z1M0 1-595).
T1 construct: on transfected CHO or Hek293 cells, or endogenous on Yac-1 cells; also called mP2X7; mouse purinoceptor P2X7
T1 sequence: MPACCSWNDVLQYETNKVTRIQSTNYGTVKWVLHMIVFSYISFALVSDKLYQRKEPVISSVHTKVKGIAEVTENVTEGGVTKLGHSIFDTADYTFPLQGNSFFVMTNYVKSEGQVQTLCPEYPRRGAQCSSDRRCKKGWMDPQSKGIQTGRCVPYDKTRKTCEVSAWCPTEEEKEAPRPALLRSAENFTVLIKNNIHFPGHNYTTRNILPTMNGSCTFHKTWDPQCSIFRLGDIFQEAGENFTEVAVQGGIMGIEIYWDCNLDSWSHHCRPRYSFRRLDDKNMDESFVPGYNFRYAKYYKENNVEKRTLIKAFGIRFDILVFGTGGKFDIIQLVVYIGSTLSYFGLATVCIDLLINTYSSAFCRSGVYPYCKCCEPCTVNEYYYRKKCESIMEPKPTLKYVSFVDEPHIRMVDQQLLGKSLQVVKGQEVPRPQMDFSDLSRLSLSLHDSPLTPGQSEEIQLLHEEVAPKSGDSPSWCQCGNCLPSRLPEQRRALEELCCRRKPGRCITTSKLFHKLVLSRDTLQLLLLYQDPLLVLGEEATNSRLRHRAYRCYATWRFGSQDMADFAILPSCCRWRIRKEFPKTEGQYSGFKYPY
As to the kind of experiment: Table A-1 'P2X7 function'; screening on mP2X7-expressing cells.

In assay [2] the target is T1, mouse P2X7. Briefly: flow cytometry, periplasmic extract pre-incubated with anti-myc-FITC, on mP2X7-Hek293 cells.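 Note: periplasmic extract diluted 10-fold and premixed 45 min at 4 °C with FITC anti-myc antibody, giving pseudo-bivalent Nanobodies, before binding to the cells.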 On the technique in general: Flow cytometry measures light scatter and fluorescence of single cells or particles in a stream.
Procedure: Ten-fold diluted PE were pre-incubation with 0.5 μg anti-myc FITC-conjugated antibodies (AbD Serotec, cat no. MCA2200F) (creating pseudo-bivalent Nanobodies in order to increase binding strength) in 0.1 ml PBS/10% FCS for 45 minutes at 4° C. […] Alternatively, sequential staining of 10-fold diluted PE with anti-myc FITC-conjugated antibodies was done after incubation with the cells.
The target in assay [3] is T1, mouse P2X7. Briefly: phage ELISA, mP2X7-CHO vs control CHO cells. In general terms: In an ELISA, binding on a coated surface is turned into a signal by an enzyme label.
Procedure: (§1) Sub-confluent cells were rinsed with PBS and fixed using 4% paraformaldehyde in PBS for 10 minutes at RT. Fixed cells were washed three times with PBS, and blocked with 2% BSA in PBS for 2 hours. Following blocking, 10-fold diluted culture supernatant containing phage was added and incubated for 1 hour. Cell-bound phage was detected via mouse anti-M13-HRP-conjugate (GE Healthcare, Cat nr. E2886). Rat mAb Hano43 was used as positive control.
Assay [4] addresses T1, mouse P2X7. Briefly: phage ELISA on fixed mP2X7-CHO vs untransfected CHO cells.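 Note: phage culture supernatant diluted 10-fold, applied for 1 h to paraformaldehyde-fixed, BSA-blocked cells in 96-well plates, with bound phage read via HRP-linked anti-M13 antibody.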
Procedure: as §1
The target of assay [5] is T2, human P2X4 (human, UniProt Q99571 1-388).
T2 construct: whole, on cells; also called hP2X4
T2 sequence (looked up): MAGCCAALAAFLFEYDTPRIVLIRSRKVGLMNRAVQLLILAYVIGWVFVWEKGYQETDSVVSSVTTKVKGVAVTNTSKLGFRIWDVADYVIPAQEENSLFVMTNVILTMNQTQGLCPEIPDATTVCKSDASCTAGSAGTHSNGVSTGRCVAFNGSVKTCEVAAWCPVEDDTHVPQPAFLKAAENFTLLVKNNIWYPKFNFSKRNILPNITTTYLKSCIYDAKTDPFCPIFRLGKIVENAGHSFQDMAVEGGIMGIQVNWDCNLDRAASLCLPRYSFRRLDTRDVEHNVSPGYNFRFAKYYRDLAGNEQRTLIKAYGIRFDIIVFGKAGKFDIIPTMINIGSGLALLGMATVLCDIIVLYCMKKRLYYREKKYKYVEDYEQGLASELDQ
Briefly: flow cytometry, Nanobody pre-incubated with anti-Myc-FITC.

The target of assay [6] is T3, human P2X7 (human, UniProt Q99572 1-595).
T3 construct: on transfected Hek293 cells; also called hP2X7
T3 sequence: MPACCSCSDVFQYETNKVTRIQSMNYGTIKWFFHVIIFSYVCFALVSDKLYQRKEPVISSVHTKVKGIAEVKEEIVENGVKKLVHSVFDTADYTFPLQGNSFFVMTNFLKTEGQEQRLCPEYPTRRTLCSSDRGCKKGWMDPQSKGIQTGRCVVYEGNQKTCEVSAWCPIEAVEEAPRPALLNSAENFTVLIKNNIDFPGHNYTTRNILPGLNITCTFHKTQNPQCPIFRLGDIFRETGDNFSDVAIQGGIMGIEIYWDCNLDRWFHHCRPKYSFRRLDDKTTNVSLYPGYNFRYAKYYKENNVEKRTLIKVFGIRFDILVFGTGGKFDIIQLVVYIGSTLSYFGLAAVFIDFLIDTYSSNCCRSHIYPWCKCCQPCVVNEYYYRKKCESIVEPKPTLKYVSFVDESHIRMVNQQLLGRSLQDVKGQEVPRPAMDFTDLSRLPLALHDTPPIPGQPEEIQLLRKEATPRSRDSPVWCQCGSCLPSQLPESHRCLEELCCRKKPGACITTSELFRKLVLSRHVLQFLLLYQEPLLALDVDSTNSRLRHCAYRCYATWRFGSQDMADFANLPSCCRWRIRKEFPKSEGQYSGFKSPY
Described as above.

Assay [7] concerns the target T1, mouse P2X7. As to the kind of experiment: cell-based or functional assay.

B1: P2X7PMP5F1 (VHH)
VHH: EVQLVESGGGLVQAGGSLRLSCAASERTYSMGWFRQAPGKEREFVAGSGWDGIPTRYADSVKGRFTISRDNAKNTVSLQMSGLKPEDTAIYYCATGTSVYHYQYWGQGTQVTVSS
notes: family 3; on phage or c-myc/His6-tagged in assays
With B1, the binding result in assay [1] is reported as “binds”.

B2: P2X7PMP11D3 (VHH)
VHH: EVQLVESGGGLVQPGGSLRLSCAASERTYSMGWFRQAPGKEREFVAGSGWDGIPTRYADSVKGRFTISRDNAKNTVSLQMSGLKPEDTAIYYCATGTSVYHYQYWGQGTQVTVSS
notes: as for B1
As to B2, the binding result in assay [1] was “binds”.

B3: P2X7PMP7F3 (VHH)
VHH: EVQLVESRGGLVQAGGSLRLSCAASERTYSMGWFRQAPGKEREFVAGSGWDGIPTRYADSVKSRFTISRDNAKNTVSLQMSGLKPEDTAIYYCATGTSVYHYQYWGQGTQVTVSS
notes: as for B1
As to B3, the binding result in assay [1] is “binds”.

B4: P2X7PMP11A1 (VHH)
VHH: EVQLVESGGGLVQAGGSLRLSCAASERTYSVGWFRQAPGKEREFVAGSGWDGTPTRYADSVKGRFTISRDNAKNTVSLQMSGLKPEDTAIYYCATGTSVYHYQYWGQGTQVTVSS
notes: as for B1
In the case of B4, the binding result in assay [1] was “binds”.

B5: P2X7PMP5B1 (VHH)
VHH: EVQLVESGGGLVQAGGSLRLSCAASERTYSMGWFRQAPGKEREFVAGSGWDGIPTRYADSVKGRFTISRDNAKNTVSLQMSGLKPEDTAIYYCATGTSVYHYQYRGQGTQVTVSS
notes: as for B1
B5: in assay [1], the binding result is recorded as “binds”.

B6: P2X7PMP13B2 (VHH)
VHH: EVQLVESGGGLVQAGGSLRLSCAASERTYSMGWFRQAPGKEREFVAGSGWDGIPTRYADSVKGRFTISRDNAKNAVSLQMSGLKPEDTAIYYCATGTSVYHYQYWGQGTQVTVSS
notes: as for B1
B6: the binding result in assay [1] was “binds”.

B7: P2X7PMP11G1 (VHH)
VHH: EVQLVESGGGLVQAGGSLRLSCAASERTYSMGWFRRAPGKEREFVAGSGWDGIPTRYADSVKGRFTISRDNAKNTVSLQMSGLKPEDTAIYYCATGTSVYHYQYWGQGTQVTVSS
notes: as for B1
As to B7, in assay [1], the binding result is listed as “binds”.

B8: P2X7PMP7F1 (VHH)
VHH: EVQLVESGGGLVQAGGSLRLSCAASERTYSMGWFRQAPGKEREFVAGSGWDGIPTRYADSVKGRFTISRDNAKSTVSLQMSGLKPEDTAIYYCATGTSVYHYQYWGQGTQVTVSS
notes: as for B1
Consider B8, for which the binding result in assay [1] is “binds”.

B9: P2X7PMP18C1 (VHH)
VHH: EVQLVESGGDLVQPGGSLRLSCVASGFALEEHAIGWFRQAPGKEREGVSLSSYLGAAYYATSVKGRFTISRDNAKNTVTLQMNSLKPEDTAVYYCARGHFTYDDGRITIRSVDYWGKGTLVTVSS
notes: family 25; on phage or c-myc/His6-tagged in assays
B9: in assay [2], the “MFI FACS (pre-Myc incubation)” value was determined as 63 MFI. Also, the “absorption ratio (ELISA)” value in assay [3] was found to be 18 ratio. In assay [4], the “Fold Cho P2X7/wt (phage ELISA)” value is 18 fold. The binding result in assay [5] and in assay [6] was “no binding (tested: 147 nM)” throughout.

B10: P2X7PMP18A7 (VHH)
VHH: EVQLVESGGDLVQPGGSLRLSCVASGFALEEHAIGWFRQAPGKEREGVSLSSYVGAVYYATSVKGRFTISRDNAKNTVYLQMNSLKPEDTAVYYCARGHFTYDDGRISIRSVDHWGKGTLVTVSS
notes: as for B9
Turning to B10, the “MFI FACS (pre-Myc incubation)” value in assay [2] was 69 MFI. Also, the “absorption ratio (ELISA)” value in assay [3] came to 14 ratio. The “Fold Cho P2X7/wt (phage ELISA)” value in assay [4] was determined as 14 fold. Moreover, the binding result in assay [5] and in assay [6] was “no binding (tested: 147 nM)” in each case.

B11: P2X7PMP7D8 (VHH)
VHH: EVQLVESGGGLVQPGGSLRLSCAASGLTLEYYNIGWFRQAPGKEREGVACIDWTEGSTFYVDSVKGRFTISTDNAKNTVYLHMNSLEPEDTAVYYCAAGWGRVITVQHMCADRSLFTSWGQGTQVTVSS
notes: family 13; on phage or c-myc/His6-tagged in assays
Consider B11, for which the binding result in assay [1] is “binds”.

B12: P2X7PMP8F5 (VHH)
VHH: EVQLVKSGGGLVQAGGSLRLSCAASGSFFRVNNMAWYRQAPGKQRELVADITRGDRTNYADSVNGRFTISRDNVRNTVYLQMNGLKPEDTAVYYCYARIELGPLVPRDYWGQGTQVTVSS
notes: family 5, 2; on phage or c-myc/His6-tagged in assays
Consider B12, for which the “MFI FACS (pre-Myc incubation)” value in assay [2] was found to be 143 MFI. In assay [3], the “absorption ratio (ELISA)” value amounted to 16 ratio. The “Fold Cho P2X7/wt (phage ELISA)” value in assay [4] was found to be 16 fold. In addition, in assay [5], the binding result is “no binding (tested: 147 nM)”. Moreover, the binding result in assay [6] was “no binding (tested: 147 nM)”. In assay [7], the “ATP IC50 by 2 uM NB (head prints 'mM'; ligand titration at fixed Nanobody, CD62L shedding, Yac-1 cells)” value was 0.171 mM; the “IC50 (nM) against 20 uM NAD (CD62L shedding, Yac-1 cells)” value was determined as 579 nM; the “IC50 (nM) against 100 uM ATP (CD62L shedding, Yac-1 cells)” value amounted to 350 nM.

B13: P2X7PMP7F9 (VHH)
VHH: EVQLVESGGGLVQAGASLRVSCAASARTGSYTMGWFRQAPGKEREFVSTISWNGASTVYADSVKGRFTISRDNAKNTVSLQMNSLKPEDTAVYYCAGSISSYSSRWQDDYEYWGQGTQVTVSS
notes: family 9; on phage or c-myc/His6-tagged in assays
Take B13: the binding result in assay [1] was “binds”.

B14: P2X7PMP20H9 (VHH)
VHH: EVQLVESGGRVMQTGGSLRLSCAASGHTFNDYSMGWFRQAPGKELEFLAGINWSGMSTWYADSVKDRFTISRDNNKNTVFLQMNSLEPGDTAVYYCAARQWISTIILTAPSQYDYWGQGTQVTVSS
notes: family 24; on phage or c-myc/His6-tagged in assays
For B14, in assay [1], the binding result is given as “binds”.

B15: P2X7PMP16D9 (VHH)
VHH: EVQLVESGGGLVQAGGSLRLSCAASPGTFSSFNMGWFRQTPGKEREFVAATSWSDISTYYADSVKGRFTISRDNAKNTVTLEMNSLKPEDTAVYYCAAGYYRGGYLGYRLTLEGSYDVWGQGTQVTVSS
notes: family 15; on phage or c-myc/His6-tagged in assays
For B15, the “MFI FACS (pre-Myc incubation)” value in assay [2] came to 53 MFI. For the same molecule, in assay [3], the “absorption ratio (ELISA)” value came to 7 ratio. Also, the “Fold Cho P2X7/wt (phage ELISA)” value in assay [4] was 7 fold. For the same molecule, the binding result in assay [5] and in assay [6] was “no binding (tested: 147 nM)” each time.

B16: P2X7PMP4G6 (VHH)
VHH: EVQLVESGGDVVQAGGSLRLSCLASGFTFDDYAIGWFRQAPGKEREGISCISSTGNVFYADSVKGRFTISSDKEKNTLYLQMNSLKPEDTAVYHCAAGHFTVDSGKVLLRTDVSSWGQGTQVTVSS
notes: family 1; on phage or c-myc/His6-tagged in assays
As to B16, the binding result in assay [1] is recorded as “binds”.

B17: P2X7PMP16H8 (VHH)
VHH: EVQLVESGGDVVQAGGSLRLSCLASGFTFDDYAIGWFRQAPGKEREGISCISSTGNVFYADSVKGRLTISSDKEKNTLYLQMNSLKPEDTAVYHCAAGHFTVDSGKVLLRTDISSWGQGTQVTVSS
notes: as for B16
In the case of B17, the binding result in assay [1] is recorded as “binds”.

B18: P2X7PMP20E8 (VHH)
VHH: EVQLVESGGDVVQAGGSLRLSCLASGFTFDDYAIGWFRQAPGKEREGISCISSTGNVFYADSVKGRFTISSDKEKNTLYLQMNSLKPGDTAVYHCAAGHFTVDSGKVLLRTDISSWGQGTQVTVSS
notes: as for B16
As for B18, the binding result in assay [1] is “binds”.

Source of the values: patent US20160264664A1 (Ablynx, published 2016).
